According to patent US7078233:

Molecular target: T1, 6-methylsalicylic acid synthase (6-MSAS) from Penicillium patulum, P22367
T1 chain: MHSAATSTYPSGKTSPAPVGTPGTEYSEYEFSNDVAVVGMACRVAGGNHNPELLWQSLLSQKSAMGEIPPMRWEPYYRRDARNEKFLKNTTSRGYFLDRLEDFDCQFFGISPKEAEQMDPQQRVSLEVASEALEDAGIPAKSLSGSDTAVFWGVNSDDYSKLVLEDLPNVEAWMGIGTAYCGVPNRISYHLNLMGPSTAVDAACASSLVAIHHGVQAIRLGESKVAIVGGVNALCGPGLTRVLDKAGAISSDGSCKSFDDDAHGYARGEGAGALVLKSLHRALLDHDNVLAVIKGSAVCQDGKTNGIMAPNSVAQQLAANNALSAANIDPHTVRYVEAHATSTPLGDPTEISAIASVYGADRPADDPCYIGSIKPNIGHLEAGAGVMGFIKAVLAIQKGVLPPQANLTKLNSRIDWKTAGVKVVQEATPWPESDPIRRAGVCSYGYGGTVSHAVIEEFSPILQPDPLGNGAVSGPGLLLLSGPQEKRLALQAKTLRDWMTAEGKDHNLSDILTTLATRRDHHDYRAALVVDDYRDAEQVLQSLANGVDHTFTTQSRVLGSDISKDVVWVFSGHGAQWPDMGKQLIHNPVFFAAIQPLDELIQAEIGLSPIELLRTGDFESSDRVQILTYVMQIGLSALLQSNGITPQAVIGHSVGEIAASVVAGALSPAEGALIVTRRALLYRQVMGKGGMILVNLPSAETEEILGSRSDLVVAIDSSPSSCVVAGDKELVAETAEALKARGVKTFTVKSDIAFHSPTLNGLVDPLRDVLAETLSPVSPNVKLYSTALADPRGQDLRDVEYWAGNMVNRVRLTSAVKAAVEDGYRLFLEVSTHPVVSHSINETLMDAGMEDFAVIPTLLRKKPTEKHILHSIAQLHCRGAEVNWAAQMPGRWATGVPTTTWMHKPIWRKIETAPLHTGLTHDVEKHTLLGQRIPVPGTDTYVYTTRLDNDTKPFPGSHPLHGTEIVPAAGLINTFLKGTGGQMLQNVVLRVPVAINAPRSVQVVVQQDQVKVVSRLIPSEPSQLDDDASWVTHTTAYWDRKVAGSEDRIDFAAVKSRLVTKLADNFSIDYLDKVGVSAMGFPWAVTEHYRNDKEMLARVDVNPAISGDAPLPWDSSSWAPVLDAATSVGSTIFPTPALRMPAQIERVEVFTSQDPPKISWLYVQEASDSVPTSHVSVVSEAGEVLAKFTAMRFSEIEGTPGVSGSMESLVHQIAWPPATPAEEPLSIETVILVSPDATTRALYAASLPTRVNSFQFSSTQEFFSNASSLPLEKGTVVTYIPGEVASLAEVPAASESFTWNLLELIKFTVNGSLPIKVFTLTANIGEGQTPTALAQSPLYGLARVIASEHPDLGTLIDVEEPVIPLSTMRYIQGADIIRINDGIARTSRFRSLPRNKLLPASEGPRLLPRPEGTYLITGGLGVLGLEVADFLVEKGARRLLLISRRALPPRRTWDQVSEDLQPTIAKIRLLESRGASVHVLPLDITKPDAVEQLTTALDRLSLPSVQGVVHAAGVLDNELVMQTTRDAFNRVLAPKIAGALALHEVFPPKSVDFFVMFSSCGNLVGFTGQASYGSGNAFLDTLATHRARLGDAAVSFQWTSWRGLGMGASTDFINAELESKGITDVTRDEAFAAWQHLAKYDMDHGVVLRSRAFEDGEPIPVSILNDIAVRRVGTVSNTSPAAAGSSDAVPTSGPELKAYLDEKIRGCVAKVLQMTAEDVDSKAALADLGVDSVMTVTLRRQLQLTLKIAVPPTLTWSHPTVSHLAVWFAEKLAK

B1: Bacillus subtilis surfactin holo ACP synthase (sfp) (protein)
chain: MKIYGIYMDRPLSQEENERFMSFISPEKREKCRRFYHKEDAHRTLLGDVLVRSVISRQYQLDKSDIRFSTQEYGKPCIPDLPDAHFNISHSGRWVICAFDSQPIGIDIEKTKPISLEIAKRFFSKTEYSDLLAKDKDEQTDYFYHLWSMKESFIKQEGKGLSLPLDSFSVRLHQDGQVSIELPDSHSPCYIKTYEVDPGYKMAVCAAHPDFPEDITMVSYEELL
  radioactivity from labeled beta-alanine in the 190 kD 6-MSAS band on SDS-PAGE, E. coli SJ16 cotransformed with plasmids 108 (sfp) and 109 (6-MSAS): a detectable amount of radioactivity was found in the 190 kD 6-MSAS band
